Data reported in the nanobody polyreactivity screen of Harvey et al. (2022).

Assay: yeast display, Sf9 membrane polyspecificity reagent, FACS + sequencing; frameworks hold sequencing errors
How it was run: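 After 36–48 hours of galactose induction, yeast (Saccharomyces cerevisiae BJ5465) displaying a synthetic nanobody library were stained at 4 °C for 1 hour with 10% biotinylated, detergent-solubilized Sf9 membrane reagent. Streptavidin microbeads enriched the stained cells before FACS sorting into low and high (top ~1%) gates on anti-HA and streptavidin fluorescence. Each clone's polyreactivity label reflects its gate of origin.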

QVQLVESGGGLVQAGGSLSLSCAASGITFDYYAMGWYRQAPGKERELVAAISGRGTSTYYADSVKGRFTLSRDNAKNTVYLQLNSLKPEDTAVYYCAADPAAQREQSFLCRRGPGYDYWGQGTQVTVSS
polyreactivity (PSR sort gate): low polyreactivity

QVQLVESGGGLVQAGGSLSLSCAASGITFYGYAMGWYRQAHGKERELVATIRRSTGSTYYADSVKGRFTISRDNAMNTVYLQMNSLKPEDTAVYYCATRVWFPITSYDYWGQGTKVTVSS
polyreactivity (PSR sort gate): low polyreactivity

QVQLVESGGGLVQAGGSLSLSCAASGLTIYLYAKGWYRQPPGNERELVAAISRSGGSTYYADSVKGRFTISRDNAKNTVYLQMNSLKPEDTAVYYCAAVSYYPEIRKYYYWGQGTQVTVSS
polyreactivity (PSR sort gate): high polyreactivity

QVQLVESGGGLVQAGGSLSLSCAASGNIFTIYAMGWYRKAPGKERELVARITWGGGNTYYADSVKGRFTISRDNAKNTVYLQMNSLKPEDSAVYYCNAVGPYDYRYGKYDYWGLGTQVTVSS
polyreactivity (PSR sort gate): low polyreactivity

QVQLVESGGGLVQAGGSLSLSCAASGNIFWGNAMGWYRQAPGKERELVAAITSIDSSTYYADSVKGRFTISRDNAKNTVYLQMNSLKPEDTAVYYCAADGDWYGYIWQSDDGYDSWGQGTQVTVSS
polyreactivity (PSR sort gate): low polyreactivity

QVQLVESGGGLVQAGGSLSLSCAASGNNLYGNAMGWYRPAPGKERELVAGITSGGSTNYADSVKGRFTISRDNAKNTVYLQMNSLKREDTAVYYCNATSSGSIFGYDYWGQGTQVTVSS
polyreactivity (PSR sort gate): low polyreactivity

QVQLVESGGGLVQAGGSLSLSCAASGRIFRYNAMGWYRQAPGKERELVATISRGGGSTYYADSVKGRFTISRDNAKNTVYLQMNSLKPEYTAVYYCAAVTYSRISGGYDYWGQGTQVTVSS
polyreactivity (PSR sort gate): high polyreactivity

QVQLVESGGGLVQAGGSLSLSCAASGRTFKYYTMGWYRQAPGKERELVAAISASGGSTYYADSVKGRFTISRDNAKNTVYLQMNSLKPEDTAVYYCAKGANRAIHKQPTRSRLDSWGQGTQVTVSS
polyreactivity (PSR sort gate): high polyreactivity

QVQLVESGGGLVQAGGSLSLSCAASGRTFNSYAMGWYRQAPGKERELVAAISWSGGSTYYADSVKGRFTISRDNAKNTVYLQMNSLKPEDTAVFYCATERYQSSRYRSYWYPFDYWGQGTQVTVSS
polyreactivity (PSR sort gate): low polyreactivity

QVQLVESGGGLVQAGGSLSLSCAASGRTFSPYAMGWYRQAPGKERELVAAITNGGSTHYADSVKGRFTISRDNAKNTVYLQMNTLKPEYTAVYYCAKSRVLYGYAEYYEMDYWGQGTQVTVSS
polyreactivity (PSR sort gate): low polyreactivity

QVQLVESGGGLVQAGGSLSLSCAASGRTFSYYTMGWYRQAPGKERELVARISNRGTNTYYADSVKGRFTISRDNAKNTVYLQMNSLTPEDTAVYYCAKYYYTSIVGYDSWGQGTQVTVSS
polyreactivity (PSR sort gate): low polyreactivity

QVQLVESGGGLVQAGGSLSLSCAASGSIFGRNTMGWYRQAPGKERELVAAITLRGGSTYYADSVKGRFTISRDNAKKTVYLQMNSLKPEDTSDYYCATDGWKQSAYDYWGQGTQVTVSS
polyreactivity (PSR sort gate): low polyreactivity

QVQLVESGGGLVQAGGSLSLSCAASGSIFGVNAMGWYRQAPGKERELVAAITLRSGSTYYADSVKGRFTISRDNAKNTVYIQMNSLKPEDTAVYYSATYSWGVDRPNYNYWGQGTQVTVSS
polyreactivity (PSR sort gate): low polyreactivity

QVQLVESGGGLVQAGGSLSLSCAASGSIFRTYALGWYRQAPGKERELVASITKSGARTYYADSVKGRFTISRDNAKNTVYLQMNSLKPEDTAVYYCAAGYYSVTSRRYRMYYWGQGTQVTVSS
polyreactivity (PSR sort gate): high polyreactivity

QVQLVESGGGLVQAGGSLSLSCAASGSIFRWYAMGWYRQAPGKERELVALISWRGGSTYADSVKGRFTISRDNAKNTVYLQMNSLKPEDTADYYCNARPGSSYWYDAQWGEYGYWGQGTQVTVSS
polyreactivity (PSR sort gate): high polyreactivity

QVQLVESGGGLVQAGGSLSLSCAASGSIFSYYAMGWYRQAPGKARELVAAITANGGSTSYADSVKGRFTISRDTANNTVYLQMNRLKPEDTAVYYCAKESDYPDFVSTKGDYDYWGQGTQVTVSS
polyreactivity (PSR sort gate): low polyreactivity

QVQLVESGGGLVQAGGSLSLSCAASGSILAVNAMGWYRQAPGKERELVAAISSRGGSTSYADSVKGRFTISRDNAKNTVYLQMNSLKPEDTAVYYCAVRAVRRLRTSVPVRFYYWGQGTQVTVSS
polyreactivity (PSR sort gate): high polyreactivity

QVQLVESGGGLVQAGGSLSLSCAASGSILYINDMGWYRQAPGKERELVAAISWSGDSTIYADSVKGRFTISRDNAKNTVYLQMNSLKPEDTAVYYCNAVWYGGDMDYWGQGTQVTVSS
polyreactivity (PSR sort gate): low polyreactivity

QVQLVESGGGLVQAGGSLSLSCAASGSIYWYAMGWYRQAPGKERELVSAISRRGGSTYYADSLKGRFTISRDNAKNTVYLQMNSLKPEDTAVYYCAVGIYGEYDYWGQGTQVTVSS
polyreactivity (PSR sort gate): high polyreactivity

QVQLVESGGGLVQAGGSLSLSCAASGSNFYYNVMGWYRQAPGKERELVAAISQSGVRTYYADSVKGRFTISRDNAKNTVYLQMNSLKPEDTAVYYCAAKARRLYASSYDYWGQGTQVTVSS
polyreactivity (PSR sort gate): high polyreactivity

QVQLVESGGGLVQAGGSLSLSCAASGSTFFIYTMGWYRQAPGNEREFVAAISWTGGRTYYADSEKGRFTISRDNAKNTVFLQMNSLTPEDTAVYYCAARYKYSSYDYWGQGTQVTVSS
polyreactivity (PSR sort gate): high polyreactivity

QVQLVESGGGLVQAGGSLSLSCAASGSTFIHNAMGWYRQAPGKERELVAAITSGGSTYYADSVKGRFTISRDNAKNTVYLQMNSLKPEDTAVYYCNRVSWRYSTMEYWGHGTQVTVSS
polyreactivity (PSR sort gate): high polyreactivity

QVQLVESGGGLVQAGGSLSLSCAASGSTFKHYAMGWYRQAPGKERELVAAISSRGGSTHYADSVKGRFTISRDNAMNTVYLQMNSLKPEDTAVYYCARDTDPQSSRSSDYDYWGQGTHVTVSS
polyreactivity (PSR sort gate): low polyreactivity

QVQLVESGGGLVQAGGSLSLSCAASGSTFNRYAMRSYRQAPGQESELVDTINLNTGSTYADSVKGRFTISRDNAKNTVYLEMNSVKPEDTAVYYCAAVGQTHPTSPLSTKYDYWGQGTQVTVSS
polyreactivity (PSR sort gate): low polyreactivity

QVQLVESGGGLVQAGGSLSLSCAASGSTFPKYAMGWYRQAPGKERELVAAISGSGGSTYYADSVKGRFTISRDNAKNTVYLQMNSLKPEDTAVYYSAVAWNVRGVGARQRDIYGYWGQGTQVTVST
polyreactivity (PSR sort gate): high polyreactivity

QVQLVESGGGLVQAGGSLSLSCAASGSTFRYYTMGWYRQAPGKERELVAAISWTGGGTYYADSVKGRFTISRDNAKNTVYLQMNSLKPEDTAVYYCAASYYYELFRFDYWGQGTQVTVSS
polyreactivity (PSR sort gate): high polyreactivity

QVQLVESGGGLVQAGGSLSLSCAASGSTFSLNTKGWYRQAPRKERELVAAITSGGSTNYADSVKGRFTISRDNAKNTVYLQMNSLKPEDTAVYYCAATPGRGGGYNYWGQGSQVTVSS
polyreactivity (PSR sort gate): low polyreactivity

QVQLVESGGGLVQAGGSLSLSCAASGSTFVGYAMGWYRQAPGKEREFVAAITRGGSTNYADSVKGRFTISRDNAKNTVYLQMNSLNPEDTAVYYCAARDRREGFNFDYWGQGTQVTVSS
polyreactivity (PSR sort gate): low polyreactivity

QVQLVESGGGLVQAGGSLSLSCAASGSTYARYTMGWYRQAPGKERELVAAISGRGGSTYYADSVKGRFTISRDNAKNTVYLQMNSLKPEDTAVYYCAAHDTYHSYGLYSWGQGTQVTVSS
polyreactivity (PSR sort gate): low polyreactivity

QVQLVESGGGLVQAGGSLSLSCAASGYIVKAYVMGWYRPAPGKVRELVAAITWSGGSTYYADTVKGRFTISRDNAKNTVYLQMNSLKPEDTAVYYCAAYARRYRTPYDFWGQGTQVTLSS
polyreactivity (PSR sort gate): high polyreactivity

QVQLVESGGGLVQAGGSLSLSCAASGYTFLRYAMGWYRQAPGQERELVATISRSGGRTYYADSVKGRFTISRDNAKNTVYLLMNSLKPEDTSVYYCNAEAIVVNGGGYWGQGTQVTVSS
polyreactivity (PSR sort gate): high polyreactivity
